Test results as given in patent US20230203169 (published 2023).

T1: CD20 (human, UniProt P11836)
T1 chain: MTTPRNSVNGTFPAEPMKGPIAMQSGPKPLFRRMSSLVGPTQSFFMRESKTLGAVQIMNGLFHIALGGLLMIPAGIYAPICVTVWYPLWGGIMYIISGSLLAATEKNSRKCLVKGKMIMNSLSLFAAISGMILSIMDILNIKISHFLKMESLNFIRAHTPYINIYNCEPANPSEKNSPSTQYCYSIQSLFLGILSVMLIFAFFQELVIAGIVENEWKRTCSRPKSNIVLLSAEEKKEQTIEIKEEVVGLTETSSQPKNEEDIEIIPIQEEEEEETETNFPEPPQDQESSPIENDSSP


How the values were obtained:
FcγRIIIa 158F (human) = FcγRIIIa 158F (human) (UniProt P08637); test: BLI
CD20 [1] = biological target: T1, CD20; test: FACS, Raji cells, 4C
CD20 [2] = biological target: T1, CD20; test: FACS, Wil2-s cells, 4C
CD20 [3] = biological target: T1, CD20; test: FACS, Wil2-s cells, 4C
CD20 [4] = biological target: T1, CD20; test: FACS, Raji cells, 4C

FcγRIIIa 158F (human), sequence (P08637 17-208): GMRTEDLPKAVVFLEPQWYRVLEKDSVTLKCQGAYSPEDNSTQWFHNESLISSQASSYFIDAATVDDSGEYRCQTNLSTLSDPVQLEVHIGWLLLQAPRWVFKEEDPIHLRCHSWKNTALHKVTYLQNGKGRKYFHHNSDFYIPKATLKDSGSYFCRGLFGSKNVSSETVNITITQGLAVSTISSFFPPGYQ

Molecule | Kd (FcγRIIIa 158F (human)) [nM] | Kd (CD20 [1]) [nM] | Kd (CD20 [2]) [nM] | IC50 (CD20 [3]) [nM] | IC50 (CD20 [4]) [nM]
Obinutuzumab (Gazyva) | 226 |  |  |  | 
Rituximab (antibody) chain 1: QVQLQQPGAELVKPGASVKMSCKASGYTFTSYNMHWVKQTPGRGLEWIGAIYPGNGDTSYNQKFKGKATLTADKSSSTAYMQLSSLTSEDSAVYYCARSTYYGGDWYFNVWGAGTTVTVSA chain 2: QIVLSQSPAILSASPGEKVTMTCRASSSVSYIHWFQQKPGSSPKPWIYATSNLASGVPVRFSGSGSGTSYSLTISRVEAEDAATYYCQQWTSNPPTFGGGTKLEIK |  | 12.7 | 16 | 16.8 | 13.3
